According to paper PMC10399232:

Target: eIF4E (mouse (endogenous in cerebellum)) (UniProt P63073)
Assay: pull-down; m7GTP beads (30 ul) incubated with 500 ug mouse cerebellar lysate for 1 h at 4 C; lysis buffer 150 mM NaCl, 10 mM MgCl2, 30 mM tris pH 8.0, 1 mM DTT, 1.5% Triton X-100; washed three times in 100 mM KCl, 50 mM tris pH 7.4, 5 mM MgCl2, 0.5% Triton X-100; eIF4E and eIF4G blotted; eIF4G/eIF4E ratio normalized to the WT mean; CYFIP1 OE and WT mice

Sequence of UniProt P63073 (P63073 whole entry): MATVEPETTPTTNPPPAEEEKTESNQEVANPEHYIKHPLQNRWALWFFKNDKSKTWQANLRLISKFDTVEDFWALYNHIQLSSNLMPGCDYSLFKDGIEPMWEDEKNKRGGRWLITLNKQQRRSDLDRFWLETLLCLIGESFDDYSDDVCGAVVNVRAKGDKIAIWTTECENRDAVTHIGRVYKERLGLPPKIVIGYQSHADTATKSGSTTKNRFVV

## eIF4G (natural protein)
  eIF4G/eIF4E binding ratio in CYFIP1 OE mice, normalized to WT mean (fold of WT mean): 1.68
